Results on one sequence are retold here after paper PMC9330529.

Series [1] concerns the target SARS-CoV-2 spike protein Delta (SARS-CoV-2 (Delta variant)) (UniProt P0DTC2). The experiment in a line: flow cytometry on Ni-NTA beads. (Flow cytometry measures light scatter and fluorescence of single cells or particles in a stream.)
Series [2] has the same target. Put plainly: streptavidin bead fluorescence binding.

For the sequence “CGCAGCACCCAAGAACAAGGACTGCTTAGGATTGCGATAGGTTCGGAAAAAAGGCGGGTTCCTAGACTTGTACTCAGCCT [S1B6C3-A5-S2A2C1]”, the Kd (usually the free concentration of one partner at which half of the binding sites on the other are occupied at equilibrium, for simple one-to-one binding) in series [1] was found to be 32.6 nM; in series [2] it was 34.1 nM.
